This is an account of results in patent US20120045393A1 (priority 2009, published 2012).

Non-standard residues stand in square brackets, D forms with d. Residues, ends and D or L forms follow the SMILES beside them. Primed or numbered codes have the meaning given here. *: point of attachment. DO3A10CM(3) = metal chelator group attached at the N-terminus (X in table rows); DO3A10CM″ = chelating group at the N-terminus (X in the sequence tables); DOTA = O=C(O)CN1CCN(CC(=O)O)CCN(CC(=O)*)CCN(CC(=O)O)CC1; Bpa = N[C@@H](Cc1ccc(C(=O)c2ccccc2)cc1)C(=O)O; d2Nal = N[C@H](Cc1ccc2ccccc2c1)C(=O)O; d3Pal = N[C@H](Cc1cccnc1)C(=O)O; DO3A10CM = not defined here; Nicotinoyl = O=C(c1cccnc1)*; Apgly = not defined here; Bugly = not defined here; Etgly = not defined here; Hegly = not defined here; Ipgly = not defined here; Mpgly = not defined here; Prgly = not defined here; Btd = not defined here; azaGly = NNC(=O)O; Sar = CNCC(=O)O

First the molecules themselves.
B1: BRU-2789 (peptide)
peptide: DO3A10CM-G[Etgly]HWSH[dR]W[Bpa]P[azaGly]-NH2
modifications: reading uncertain
B2: BRU-3019 (peptide)
peptide: XRWSHXWXP
modifications: not fully specified; DO3A10CM on N-terminus; AA1 Dnal2 (Table 6; Sar in paragraph 138); AA6 Darg; AA8 Bpa4; AA10 Az23po-Dabt14
B3: BRU-2729 (peptide)
peptide: XHWSHXWXPX
modifications: DO3A10CM on N-terminus; AA1 Sar; AA6 Dcit; AA8 Bpa4; AA10 azaGly-NH2
B4: BRU-2674 (peptide)
peptide: {DO3A10CM(3)}-[Sar]HWSH[dK](Nicotinoyl)WYP[azaGly]-NH2
B5: BRU-2634 (peptide)
peptide: XHWSHXWXPX
modifications: DO3A10CM on N-terminus; AA1 Sar; AA6 Darg; AA8 Tbufe4; AA10 azaGly-NH2
B6: BRU-2755 (peptide)
peptide: {DO3A10CM″}-G[Mephe]HWSHRW[Bpa]P[azaGly]-NH2
modifications: not fully specified (residue 7)
B7: BRU-3000 (peptide)
peptide: DO3A10CM-[Sar]HWSH[Btd]W[Bpa]P[azaGly]-NH2
modifications: reading uncertain
B8: BRU-2675 (peptide)
peptide: XHWSHXWXPX
modifications: DO3A10CM on N-terminus; AA1 Sar; AA6 Darg; AA8 Lys(isp); AA10 azaGly-NH2
B9: BRU-2437 (peptide)
peptide: XHWSHXWYPX
HELM: PEPTIDE1{[Glp].H.W.S.H.[dK].W.Y.P.[O=C(NN[*:1])[*:2]].[am]}$$$$V2.0
SMILES: NCCCC[C@@H](NC(=O)[C@H](Cc1c[nH]cn1)NC(=O)[C@H](CO)NC(=O)[C@H](Cc1c[nH]c2ccccc12)NC(=O)[C@H](Cc1c[nH]cn1)NC(=O)[C@@H]1CCC(=O)N1)C(=O)N[C@@H](Cc1c[nH]c2ccccc12)C(=O)N[C@@H](Cc1ccc(O)cc1)C(=O)N1CCC[C@H]1C(=O)NNC(N)=O
B10: BRU-2874 (peptide)
peptide: DO3A10CM-G[Apgly]HWSHRW[Bpa]P[azaGly]-NH2
modifications: not fully specified (residue 7); reading uncertain; also: AA6 Darg prints R
B11: BRU-2794 (peptide)
peptide: DO3A10CM-G[Prgly]HWSH[dR]W[Bpa]P[azaGly]-NH2
modifications: reading uncertain
B12: BRU-2873 (peptide)
peptide: DO3A10CM-G[Hegly]HWSHRW[Bpa]P[azaGly]-NH2
modifications: reading uncertain; also: AA6 Darg prints R
B13: BRU-2981 (peptide)
peptide: XRWSHXWXP
modifications: DO3A10CM on N-terminus; AA1 Dnal2; AA6 Darg; AA8 Bpa4; AA10 Ae (aminoethane)
B14: BRU-2625 (peptide)
peptide: XHWSHXWXPX
modifications: DO3A10CM on N-terminus; AA1 Sar; AA6 Darg; AA8 Bip; AA10 azaGly-NH2
B15: BRU-3005 (peptide)
peptide: XRWSHXWXPGX
modifications: DO3A10CM on N-terminus; AA1 Dnal2; AA6 Darg; AA8 Bpa4; AA10 Gly-NH2 (amide)
B16: BRU-2980 (peptide)
peptide: DO3A10CM-[d2Nal]RWSH[dR]W[Bpa]PGF-NH2
modifications: reading uncertain
B17: BRU-2791 (peptide)
peptide: DO3A10CM-G[Bugly]HWSH[dR]W[Bpa]P[azaGly]-NH2
modifications: reading uncertain
B18: BRU-2987 (peptide)
peptide: XRWSHXWXPG
modifications: DO3A10CM on N-terminus; AA1 Dnal2; AA6 Darg; AA8 Bpa4; C-terminal Gly-Aprp1h3
B19: BRU-2731 (peptide)
peptide: DO3A10CM-[Sar]HWSH[dW]W[Bpa]P[azaGly]-NH2
modifications: reading uncertain
B20: BRU-2673 (peptide)
peptide: {DO3A10CM(3)}-[Sar]HWSH[d3Pal]W[Bpa]P[azaGly]-NH2
B21: BRU-2970 (peptide)
peptide: XRWSHXWXP
modifications: DO3A10CM on N-terminus; AA1 Dnal2; AA6 Darg; AA8 Bpa4; AA10 Aeh2 (aminoethanol; printed Ach2 in paragraph 138)
B22: BRU-2761 (peptide)
peptide: {DO3A10CM″}-[Sar]HWSH[dS]W[Bpa]P[azaGly]-NH2
B23: BRU-2672 (peptide)
peptide: {DO3A10CM(3)}-[Sar]HWSH[dA]W[Bpa]P[azaGly]-NH2
B24: BRU-2793 (peptide)
peptide: DO3A10CM-G[Mpgly]HWSH[dR]W[Bpa]P[azaGly]-NH2
modifications: reading uncertain
B25: BRU-2989 (peptide)
peptide: XRWSHXWXPG
modifications: DO3A10CM on N-terminus; AA1 Dnal2; AA6 Darg; AA8 Bpa4; C-terminal Gly-Az23(py2)2po-Ap
B26: BRU-2982 (peptide)
peptide: XRWSHXWXP
modifications: DO3A10CM on N-terminus; AA1 Dnal2; AA6 Darg; AA8 Bpa4; AA10 Aprp1h3
B27: BRU-3022 (peptide)
peptide: XRWSHXWXP
modifications: not fully specified; DO3A10CM on N-terminus; AA1 Dnal2 (Table 6; Sar in paragraph 138); AA6 Darg; AA8 Bpa4; AA10 Az23po-Da15o3pt
B28: BRU-2790 (peptide)
peptide: DO3A10CM-G[Ipgly]HWSH[dR]W[Bpa]P[azaGly]-NH2
modifications: reading uncertain
B29: BRU-2872 (peptide)
peptide: DO3A10CM-G[Chgly]HWSHRW[Bpa]P[azaGly]-NH2
modifications: reading uncertain; also: AA6 Darg prints R
B30: BRU-2671 (peptide)
peptide: {DO3A10CM(3)}-[Sar]HWSH[dK](Nicotinoyl)W[Bpa]P[azaGly]-NH2
B31: BRU-2893 (peptide)
peptide: XHWSHXWXPX
modifications: DO3A10CM on N-terminus; AA1 Sar; AA6 Dharg; AA8 Bpa4; AA10 azaGly-NH2
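Wherever binding potency, times lower than BRU-2813 is given: Cell-associated radioactivity on confluent EFO-27 monolayers in 96-well plates, measured by microplate scintillation counting.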

The subject of the first assay is LHRH binding sites on human ovarian cancer cells (EFO-27).
Test: not given
Conditions: not given
Take `N=C(N)NCCC[C@H](NC(=O)[C@@H](Cc1ccc2ccccc2c1)NC(=O)CN1CCN(CC(=O)O)CCN(CC(=O)O)CCN(CC(=O)O)CC1)C(=O)N[C@@H](Cc1c[nH]c2ccccc12)C(=O)N[C@@H](CC(=O)O)C(=O)N[C@@H](Cc1c[nH]cn1)C(=O)N[C@H](CCCNC(=N)N)C(=O)N[C@@H](Cc1c[nH]c2ccccc12)C(=O)N[C@@H](Cc1ccc(C(=O)c2ccccc2)cc1)C(=O)N1CCC[C@H]1C(=O)NNC(N)=O` [BRU-2954] ({DOTA}-[d2Nal]RWDH[dR]W[Bpa]P[azaGly]-NH2): the EC50 (commonly the concentration giving half of the maximal effect) was 4200 nM.

On to `CNCC(=O)N[C@@H](CCCNC(=N)N)C(=O)N[C@@H](Cc1c[nH]c2ccccc12)C(=O)N[C@@H](CO)C(=O)N[C@@H](Cc1c[nH]cn1)C(=O)N[C@H](CCCNC(=N)N)C(=O)N[C@@H](Cc1c[nH]c2ccccc12)C(=O)N[C@@H](Cc1ccc(C(=O)c2ccccc2)cc1)C(=O)N1CCC[C@H]1C(=O)NCc1cccc(CNC(=O)CN2CCN(CC(=O)O)CCN(CC(=O)O)CCN(CC(=O)O)CC2)n1` [BRU-3080], for which the 50% effective concentration (EC50) lay within 230 to 500 nM.

In the case of `CC(=O)N[C@H](Cc1ccc2ccccc2c1)C(=O)N[C@@H](CCCNC(=N)N)C(=O)N[C@@H](Cc1c[nH]c2ccccc12)C(=O)N[C@@H](CO)C(=O)N[C@@H](Cc1c[nH]cn1)C(=O)N[C@H](CCCNC(=N)N)C(=O)N[C@@H](Cc1c[nH]c2ccccc12)C(=O)N[C@@H](Cc1ccc(C(=O)c2ccccc2)cc1)C(=O)N1CCC[C@H]1C(=O)NCCOCCNC(=O)CN1CCN(CC(=O)O)CCN(CC(=O)O)CCN(CC(=O)O)CC1` [BRU-2992], the EC50 was 230 to 500 nM. `CNCC(=O)N[C@@H](Cc1c[nH]cn1)C(=O)N[C@@H](Cc1c[nH]c2ccccc12)C(=O)N[C@@H](CO)C(=O)N[C@@H](Cc1c[nH]cn1)C(=O)N[C@H](CCCNC(=N)N)C(=O)N[C@@H](Cc1c[nH]c2ccccc12)C(=O)N[C@@H](Cc1ccc(C(=O)c2ccccc2)cc1)C(=O)N1CCC[C@H]1C(=O)NCCNC(=O)CN1CCN(CC(=O)O)CCN(CC(=O)O)CCN(CC(=O)O)CC1` [BRU-3079]: the concentration giving a half-maximal response (EC50) lay in the range of 590 to 1000 nM.

Staying with this assay, now noted: EFO-27 cells, competition with [125I-Tyr8]BRU-2477, 90 min.
In turn, `N=C(N)NCCC[C@H](NC(=O)[C@@H](Cc1ccc2ccccc2c1)NC(=O)CN1CCN(CC(=O)O)CCN(CC(=O)O)CCN(CC(=O)O)CC1)C(=O)N[C@@H](Cc1c[nH]c2ccccc12)C(=O)N[C@@H](CO)C(=O)N[C@@H](Cc1c[nH]cn1)C(=O)N[C@H](CCCNC(=N)N)C(=O)N[C@@H](Cc1c[nH]c2ccccc12)C(=O)N[C@@H](Cc1ccc(C(=O)c2ccccc2)cc1)C(=O)N1CCC[C@H]1C(=O)NCC(=O)NCCCO` [compound 2987] came in with a concentration giving a half-maximal response (EC50) of 2300 nM.

The assay is the same for the next values; noted with them: Table 5: modifications of amino acids at positions 1 and 2; in vitro binding on EFO-27 cells.
Regarding `N=C(N)NCCC[C@@H](NC(=O)[C@H](Cc1c[nH]cn1)NC(=O)[C@H](CO)NC(=O)[C@H](Cc1c[nH]c2ccccc12)NC(=O)[C@H](Cc1c[nH]cn1)NC(=O)[C@@H](Cc1ccccc1)NC(=O)CN1CCN(CC(=O)O)CCN(CC(=O)O)CCN(CC(=O)O)CC1)C(=O)N[C@@H](Cc1c[nH]c2ccccc12)C(=O)N[C@@H](Cc1ccc(C(=O)c2ccccc2)cc1)C(=O)N1CCC[C@H]1C(=O)NNC(N)=O` [BRU-2894], the EC50 turned out to be 2000 nM.

The same assay, now with this note: Table 13: linker between AA1 and DO3A10CM; EFO-27 cells.
In turn, `CN(CC(=O)N[C@@H](Cc1c[nH]cn1)C(=O)N[C@@H](Cc1c[nH]c2ccccc12)C(=O)N[C@@H](CO)C(=O)N[C@@H](Cc1c[nH]cn1)C(=O)N[C@H](CCCNC(=N)N)C(=O)N[C@@H](Cc1c[nH]c2ccccc12)C(=O)N[C@@H](Cc1ccc(C(=O)c2ccccc2)cc1)C(=O)N1CCC[C@H]1C(=O)NNC(N)=O)C(=O)CNC(=O)CN1CCN(CC(=O)O)CCN(CC(=O)O)CCN(CC(=O)O)CC1` [compound 2717] gave a 50% effective concentration (EC50) of 1530 nM.

The assay is the same for the next values; noted with them: ratio of EC50 to BRU-2813 (EC50=0.33 μM).
Take `N=C(N)NCCC[C@H](NC(=O)[C@@H](Cc1ccc2ccccc2c1)NC(=O)CN1CCN(CC(=O)O)CCN(CC(=O)O)CCN(CC(=O)O)CC1)C(=O)N[C@@H](Cc1c[nH]c2ccccc12)C(=O)N[C@@H](CC(=O)O)C(=O)N[C@@H](Cc1c[nH]cn1)C(=O)N[C@H](CCCNC(=N)N)C(=O)N[C@@H](Cc1c[nH]c2ccccc12)C(=O)N[C@@H](Cc1ccc(C(=O)c2ccccc2)cc1)C(=O)N1CCC[C@H]1C(=O)NNC(N)=O` [BRU-2954] ({DOTA}-[d2Nal]RWDH[dR]W[Bpa]P[azaGly]-NH2): the “binding potency, times lower than BRU-2813” value was around 13.

The target in another assay is LHRH binding sites on EFO-27 human ovarian cancer cells (human). Nature of the assay: competition with [125I-Tyr8]BRU-2477 on EFO-27 cells.
Conditions: not given
Regarding B1, the EC50 came out at 5120 nM. Take B2: the EC50 was 900 nM. Regarding B3, the half-maximal effective concentration (EC50) came to 14200 nM and the times lower binding than BRU-2443 amounted to 15 times.

B4: the EC50 came to 22600 nM. In other words, the double-digit micromolar range.

The molecule B5 returned an EC50 of 980 nM. For the molecule B6, the EC50 amounted to 1290 nM.

Turning to B7, the EC50 turned out to be 4230 nM and the times lesser binding efficacy than BRU-2443 is 4.5 times. For B8, the EC50 worked out at 12300 nM. B9: the concentration giving a half-maximal response (EC50) worked out at 8540 nM. As to B10, the EC50 is 1970 nM.

For the molecule B11, the EC50 amounted to 1300 nM. B12 came in with an EC50 of 1330 nM.

The molecule B13 had a half-maximal effective concentration (EC50) of 970 nM.

In turn, B14 showed an EC50 of 2140 nM.

For the molecule B15, the EC50 amounted to 660 nM. For B16, the EC50 came to 970 nM. B17 registered a concentration giving a half-maximal response (EC50) of 4030 nM. The molecule B18 gave a concentration giving a half-maximal response (EC50) of 2300 nM. Regarding B19, the concentration giving a half-maximal response (EC50) was 1360 nM.

In turn, B20 showed an EC50 of 12300 nM.

The molecule B21 had a 50% effective concentration (EC50) of 510 nM. In the case of B22, the EC50 was 13600 nM. On the same count and under the same terms, then B23, with 14000 nM. With B24, the 50% effective concentration (EC50) stood at 1340 nM. Consider B25, for which the half-maximal effective concentration (EC50) was 1130 nM. For B26, the EC50 was found to be 1130 nM. Same read-out and setting: the result for B27 reads 710 nM; that for B28, 3300 nM. On the same count and under the same terms, the result for B29 reads 2900 nM; that for B30, 7200 nM. B31 had an EC50 of 2600 nM and a times lower binding than BRU-2443 of 2.7 times.
